The supplement of paper PMC5998384

Assays:
[1] = tested on: HeLa Kyoto; assay: thermal stability score vs G1/S (z-score of summed log2 fold changes over temperatures); higher = more thermally stable than in G1/S
[2] = tested on: HeLa Kyoto; assay: solubility in G1/S (NP-40 vs SDS abundance) (log2 ratio); higher = more soluble; details: cell cycle stage: G1/S
[3] = tested on: HeLa Kyoto; assay: solubility change mitosis vs G1/S (difference of NP-40 vs SDS log2 ratios) (log2 ratio difference); higher = more soluble in mitosis
[4] = cell cycle stage: early G1 (4.5 h after nocodazole release)
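Wherever solubility change mitosis vs G1/S (difference of NP-40 vs SDS log2 ratios) is given: synchronized HeLa Kyoto cells (double thymidine block for G1/S, nocodazole release for mitosis), protein amounts in NP-40 versus SDS lysates quantified by mass spectrometry, three biological replicates.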
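Wherever solubility in G1/S (NP-40 vs SDS abundance) is given: HeLa Kyoto cells arrested at G1/S by double thymidine block, proteins quantified by TMT10plex mass spectrometry in mild NP-40 versus SDS extracts, three biological replicates.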
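Wherever thermal stability score vs G1/S (z-score of summed log2 fold changes over temperatures) is given: synchronized HeLa Kyoto cells, proteins quantified by TMT10plex mass spectrometry, three biological replicates, mitosis taken 0.5 h after nocodazole release, G1/S directly after double thymidine block.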

MERGKMAEAESLETAAEHERILREIESTDTACIGPTLRSVYDGEEHGRFMEKLETRIRNHDREIEKMCNFHYQGFVDSITELLKVRGEAQKLKNQVTDTNRKLQHEGKELVIAMEELKQCRLQQRNISATVDKLMLCLPVLEMYSKLRDQMKTKRHYPALKTLEHLEHTYLPQVSHYRFCKVMVDNIPKLREEIKDVSMSDLKDFLESIRKHSDKIGETAMKQAQQQRNLDNIVLQQPRIGSKRKSKKDAYIIFDTEIESTSPKSEQDSGILDVEDEEDDEEVPGAQDLVDFSPVYRCLHIYSVLGARETFENYYRKQRRKQARLVLQPPSNMHETLDGYRKYFNQIVGFFVVEDHILHTTQGLVNRAYIDELWEMALSKTIAALRTHSSYCSDPNLVLDLKNLIVLFADTLQVYGFPVNQLFDMLLEIRDQYSETLLKKWAGIFRNILDSDNYSPIPVTSEEMYKKVVGQFPFQDIELEKQPFPKKFPFSEFVPKVYNQIKEFIYACLKFSEDLHLSSTEVDDMIRKSTNLLLTRTLSNSLQNVIKRKNIGLTELVQIIINTTHLEKSCKYLEEFITNITNVLPETVHTTKLYGTTTFKDARHAAEEEIYTNLNQKIDQFLQLADYDWMTGDLGNKASDYLVDLIAFLRSTFAVFTHLPGKVAQTACMSACKHLATSLMQLLLEAEVRQLTLGALQQFNLDVRECEQFARSGPVPGFQEDTLQLAFIDLRQLLDLFIQWDWSTYLADYGQPNCKYLRVNPVTALTLLEKMKDTSRKNNMFAQFRKNERDKQKLIDTVAKQLRGLISSHHS [EXOC6B]
thermal stability score [1, 4]: 0.0917
thermal stability score ([1]; cell cycle stage: mitosis): 0.56
solubility in G1/S (log2) [2]: -0.17
solubility change mitosis (log2) [3]: -0.0208

MERRSRRKSRRNGRSTAGKAAATQPAKSPGAQLWLFPSAAGLHRALLRRVEVTRQLCCSPGRLAVLERGGAGVQVHQLLAGSGGARTPKCIKLGKNMKIHSVDQGAEHMLILSSDGKPFEYDNYSMKHLRFESILQEKKIIQITCGDYHSLALSKGGELFAWGQNLHGQLGVGRKFPSTTTPQIVEHLAGVPLAQISAGEAHSMALSMSGNIYSWGKNECGQLGLGHTESKDDPSLIEGLDNQKVEFVACGGSHSALLTQDGLLFTFGAGKHGQLGHNSTQNELRPCLVAELVGYRVTQIACGRWHTLAYVSDLGKVFSFGSGKDGQLGNGGTRDQLMPLPVKVSSSEELKLESHTSEKELIMIAGGNQSILLWIKKENSYVNLKRTIPTLNEGTVKRWIADVETKRWQSTKREIQEIFSSPACLTGSFLRKRRTTEMMPVYLDLNKARNIFKELTQKDWITNMITTCLKDNLLKRLPFHSPPQEALEIFFLLPECPMMHISNNWESLVVPFAKVVCKMSDQSSLVLEEYWATLQESTFSKLVQMFKTAVICQLDYWDESAEENGNVQALLEMLKKLHRVNQVKCQLPESIFQVDELLHRLNFFVEVCRRYLWKMTVDASENVQCCVIFSHFPFIFNNLSKIKLLHTDTLLKIESKKHKAYLRSAAIEEERESEFALRPTFDLTVRRNHLIEDVLNQLSQFENEDLRKELWVSFSGEIGYDLGGVKKEFFYCLFAEMIQPEYGMFMYPEGASCMWFPVKPKFEKKRYFFFGVLCGLSLFNCNVANLPFPLALFKKLLDQMPSLEDLKELSPDLGKNLQTLLDDEGDNFEEVFYIHFNVHWDRNDTNLIPNGSSITVNQTNKRDYVSKYINYIFNDSVKAVYEEFRRGFYKMCDEDIIKLFHPEELKDVIVGNTDYDWKTFEKNARYEPGYNSSHPTIVMFWKAFHKLTLEEKKKFLVFLTGTDRLQMKDLNNMKITFCCPESWNERDPIRALTCFSVLFLPKYSTMETVEEALQEAINNNRGFG [HERC5]
thermal stability score [1, 4]: -0.386
thermal stability score ([1]; cell cycle stage: mitosis): -1.53
solubility in G1/S (log2) [2]: -1.44
solubility change mitosis (log2) [3]: 0.525

METRYNLKSPAVKRLMKEAAELKDPTDHYHAQPLEDNLFEWHFTVRGPPDSDFDGGVYHGRIVLPPEYPMKPPSIILLTANGRFEVGKKICLSISGHHPETWQPSWSIRTALLAIIGFMPTKGEGAIGSLDYTPEERRALAKKSQDFCCEGCGSAMKDVLLPLKSGSDSSQADQEAKELARQISFKAEVNSSGKTISESDLNHSFSLTDLQDDIPTTFQGATASTSYGLQNSSAASFHQPTQPVAKNTSMSPRQRRAQQQSQRRLSTSPDVIQGHQPRDNHTDHGGSAVLIVILTLALAALIFRRIYLANEYIFDFEL [UBE2J1]
thermal stability score [1, 4]: -0.0441
thermal stability score ([1]; cell cycle stage: mitosis): 1.77
solubility in G1/S (log2) [2]: 0.222
solubility change mitosis (log2) [3]: 0.00691

MFSVLSYGRLVARAVLGGLSQTDPRAGGGGGGDYGLVTAGCGFGKDFRKGLLKKGACYGDDACFVARHRSADVLGVADGVGGWRDYGVDPSQFSGTLMRTCERLVKEGRFVPSNPIGILTTSYCELLQNKVPLLGSSTACIVVLDRTSHRLHTANLGDSGFLVVRGGEVVHRSDEQQHYFNTPFQLSIAPPEAEGVVLSDSPDAADSTSFDVQLGDIILTATDGLFDNMPDYMILQELKKLKNSNYESIQQTARSIAEQAHELAYDPNYMSPFAQFACDNGLNVRGGKPDDITVLLSIVAEYTD [PPTC7]
thermal stability score [1, 4]: -1.55
thermal stability score ([1]; cell cycle stage: mitosis): -0.178
solubility in G1/S (log2) [2]: -0.0546
solubility change mitosis (log2) [3]: -0.0876

MGGGDLNLKKSWHPQTLRNVEKVWKAEQKHEAERKKIEELQRELREERAREEMQRYAEDVGAVKKKEEKLDWMYQGPGGMVNRDEYLLGRPIDKYVFEKMEEKEAGCSSETGLLPGSIFAPSGANSLLDMASKIREDPLFIIRKKEEEKKREVLNNPVKMKKIKELLQMSLEKKEKKKKKEKKKKHKKHKHRSSSSDRSSSEDEHSAGRSQKKMANSSPVLSKVPGYGLQVRNSDRNQGLQGPLTAEQKRGHGMKNHSRSRSSSHSPPRHASKKSTREAGSRDRRSRSLGRRSRSPRPSKLHNSKVNRRETGQTRSPSPKKEVYQRRHAPGYTRKLSAEELERKRQEMMENAKWREEERLNILKRHAKDEEREQRLEKLDSRDGKFIHRMKLESASTSSLEDRVKRNIYSLQRTSVALEKNFMKR [CWC25]
thermal stability score [1, 4]: -0.522
thermal stability score ([1]; cell cycle stage: mitosis): -0.488
solubility in G1/S (log2) [2]: -0.718
solubility change mitosis (log2) [3]: 0.463

MKKSIGILSPGVALGMAGSAMSSKFFLVALAIFFSFAQVVIEANSWWSLGMNNPVQMSEVYIIGAQPLCSQLAGLSQGQKKLCHLYQDHMQYIGEGAKTGIKECQYQFRHRRWNCSTVDNTSVFGRVMQIGSRETAFTYAVSAAGVVNAMSRACREGELSTCGCSRAARPKDLPRDWLWGGCGDNIDYGYRFAKEFVDARERERIHAKGSYESARILMNLHNNEAGRRTVYNLADVACKCHGVSGSCSLKTCWLQLADFRKVGDALKEKYDSAAAMRLNSRGKLVQVNSRFNSPTTQDLVYIDPSPDYCVRNESTGSLGTQGRLCNKTSEGMDGCELMCCGRGYDQFKTVQTERCHCKFHWCCYVKCKKCTEIVDQFVCK [WNT5A]
thermal stability score [1, 4]: -0.194
thermal stability score ([1]; cell cycle stage: mitosis): 0.339
solubility in G1/S (log2) [2]: -0.0436
solubility change mitosis (log2) [3]: -0.0777

MKLKLKNVFLAYFLVSIAGLLYALVQLGQPCDCLPPLRAAAEQLRQKDLRISQLQAELRRPPPAPAQPPEPEALPTIYVVTPTYARLVQKAELVRLSQTLSLVPRLHWLLVEDAEGPTPLVSGLLAASGLLFTHLVVLTPKAQRLREGEPGWVHPRGVEQRNKALDWLRGRGGAVGGEKDPPPPGTQGVVYFADDDNTYSRELFEEMRWTRGVSVWPVGLVGGLRFEGPQVQDGRVVGFHTAWEPSRPFPVDMAGFAVALPLLLDKPNAQFDSTAPRGHLESSLLSHLVDPKDLEPRAANCTRVLVWHTRTEKPKMKQEEQLQRQGRGSDPAIEV [B3GAT3]
thermal stability score [1, 4]: -0.256
thermal stability score ([1]; cell cycle stage: mitosis): -0.376
solubility in G1/S (log2) [2]: 0.166
solubility change mitosis (log2) [3]: -0.044

MKLVNIWLLLLVVLLCGKKHLGDRLEKKSFEKAPCPGCSHLTLKVEFSSTVVEYEYIVAFNGYFTAKARNSFISSALKSSEVDNWRIIPRNNPSSDYPSDFEVIQIKEKQKAGLLTLEDHPNIKRVTPQRKVFRSLKYAESDPTVPCNETRWSQKWQSSRPLRRASLSLGSGFWHATGRHSSRRLLRAIPRQVAQTLQADVLWQMGYTGANVRVAVFDTGLSEKHPHFKNVKERTNWTNERTLDDGLGHGTFVAGVIASMRECQGFAPDAELHIFRVFTNNQVSYTSWFLDAFNYAILKKIDVLNLSIGGPDFMDHPFVDKVWELTANNVIMVSAIGNDGPLYGTLNNPADQMDVIGVGGIDFEDNIARFSSRGMTTWELPGGYGRMKPDIVTYGAGVRGSGVKGGCRALSGTSVASPVVAGAVTLLVSTVQKRELVNPASMKQALIASARRLPGVNMFEQGHGKLDLLRAYQILNSYKPQASLSPSYIDLTECPYMWPYCSQPIYYGGMPTVVNVTILNGMGVTGRIVDKPDWQPYLPQNGDNIEVAFSYSSVLWPWSGYLAISISVTKKAASWEGIAQGHVMITVASPAETESKNGAEQTSTVKLPIKVKIIPTPPRSKRVLWDQYHNLRYPPGYFPRDNLRMKNDPLDWNGDHIHTNFRDMYQHLRSMGYFVEVLGAPFTCFDASQYGTLLMVDSEEEYFPEEIAKLRRDVDNGLSLVIFSDWYNTSVMRKVKFYDENTRQWWMPDTGGANIPALNELLSVWNMGFSDGLYEGEFTLANHDMYYASGCSIAKFPEDGVVITQTFKDQGLEVLKQETAVVENVPILGLYQIPAEGGGRIVLYGDSNCLDDSHRQKDCFWLLDALLQYTSYGVTPPSLSHSGNRQRPPSGAGSVTPERMEGNHLHRYSKVLEAHLGDPKPRPLPACPRLSWAKPQPLNETAPSNLWKHQKLLSIDLDKVVLPNFRSNRPQVRPLSPGESGAWDIPGGIMPGRYNQEVGQTIPVFAFLGAMVVLAFFVVQINKAKSRPKRRKPRVKRPQLMQQVHPPKTPSV [MBTPS1]
thermal stability score [1, 4]: -1.77
thermal stability score ([1]; cell cycle stage: mitosis): -1.37
solubility in G1/S (log2) [2]: 0.0339
solubility change mitosis (log2) [3]: -0.198

MKVVPEKNAVRILWGRERGARAMGAQRLLQELVEDKTRWMKWEGKRVELPDSPRSTFLLAFSPDRTLLASTHVNHNIYITEVKTGKCVHSLIGHRRTPWCVTFHPTISGLIASGCLDGEVRIWDLHGGSESWFTDSNNAIASLAFHPTAQLLLIATANEIHFWDWSRREPFAVVKTASEMERVRLVRFDPLGHYLLTAIVNPSNQQGDDEPEIPIDGTELSHYRQRALLQSQPVRRTPLLHNFLHMLSSRSSGIQVGEQSTVQDSATPSPPPPPPQPSTERPRTSAYIRLRQRVSYPTAECCQHLGILCLCSRCSGTRVPSLLPHQDSVPPASARATTPSFSFVQTEPFHPPEQASSTQQDQGLLNRPSAFSTVQSSTAGNTLRNLSLGPTRRSLGGPLSSHPSRYHREIAPGLTGSEWTRTVLSLNSRSEAESMPPPRTSASSVSLLSVLRQQEGGSQASVYTSATEGRGFPASGLATESDGGNGSSQNNSGSIRHELQCDLRRFFLEYDRLQELDQSLSGEAPQTQQAQEMLNNNIESERPGPSHQPTPHSSENNSNLSRGHLNRCRACHNLLTFNNDTLRWERTTPNYSSGEASSSWQVPSSFESVPSSGSQLPPLERTEGQTPSSSRLELSSSASPQEERTVGVAFNQETGHWERIYTQSSRSGTVSQEALHQDMPEESSEEDSLRRRLLESSLISLSRYDGAGSREHPIYPDPARLSPAAYYAQRMIQYLSRRDSIRQRSMRYQQNRLRSSTSSSSSDNQGPSVEGTDLEFEDFEDNGDRSRHRAPRNARMSAPSLGRFVPRRFLLPEYLPYAGIFHERGQPGLATHSSVNRVLAGAVIGDGQSAVASNIANTTYRLQWWDFTKFDLPEISNASVNVLVQNCKIYNDASCDISADGQLLAAFIPSSQRGFPDEGILAVYSLAPHNLGEMLYTKRFGPNAISVSLSPMGRYVMVGLASRRILLHPSTEHMVAQVFRLQQAHGGETSMRRVFNVLYPMPADQRRHVSINSARWLPEPGLGLAYGTNKGDLVICRPEALNSGVEYYWDQLNETVFTVHSNSRSSERPGTSRATWRTDRDMGLMNAIGLQPRNPATSVTSQGTQTLALQLQNAETQTEREVPEPGTAASGPGEGEGSEYGASGEDALSRIQRLMAEGGMTAVVQREQSTTMASMGGFGNNIIVSHRIHRSSQTGTEPGAAHTSSPQPSTSRGLLPEAGQLAERGLSPRTASWDQPGTPGREPTQPTLPSSSPVPIPVSLPSAEGPTLHCELTNNNHLLDGGSSRGDAAGPRGEPRNR [AMBRA1]
thermal stability score [1, 4]: 0.941
thermal stability score ([1]; cell cycle stage: mitosis): 1.96
solubility in G1/S (log2) [2]: 0.0307
solubility change mitosis (log2) [3]: -0.123
